Results as given in patent US20250243285A1 (Novartis, published 2025).
Residue numbers refer to the chain shown, from its start.

B1: C4-27z CAR (fully human anti-FRA C4 scFv linked to CD27 and CD3z signaling domains), on primary human T cells (other, not shown: large carriers)
chain: QLVESGGGLVQPGRSLRLSCTTSGFTFGDYAMIWARQAPGKGLEWVSSISSSSSYIYYADSVKGRFTISRDNAKNSLYLQMNSLRAEDTAVYYCARERYDFWSGMDVWGKGTTVTVSSGGGGSGGGGSGGSAQSALTQPASVSGSPGQSITISCTGTSSDVGSYNLVSWYQQHPGKAPKLMIYEGSKRPSGVSNRFSGSKSGNAASLTISGLQAEDEADYYCQSYDSSLSVVFGGGTKLTVLG
B2: C10 (scFv)
scFv: EVQLVQSGAEVKKPGSSVKVSCKASGGTFSSYAISWVRQAPGQGLEWMGGIIPIFGTANYAQKFQGRVTITADESTSTAYMELSSLRSEDTAVYYCAREEGPYCSSTSCYGAFDIWGQGTLVTVSSGGGGSGGGGSGGGGSQSVLTQDPAVSVALGQTVKITCQGDSLRSYFASWYQQKPGQAPTLVMYARNDRPAGVPDRFSGSKSGTSASLAISGLQSEDEADYYCAAWDDSLNGYLFGAGTKLTVL
notes: The CAR built from it is m23; also called C10 scFv (anti-EGFR, parental)
B3: P2-4 (scFv)
scFv: B2 scFv with G111A, V151A
notes: The CAR built from it is m21; also called P2-4 scFv (anti-EGFR)
B4: P3-5 (scFv)
scFv: B2 scFv with M48V, T69K, T76A, F172L, M188T
notes: The CAR built from it is m22; also called P3-5 scFv (anti-EGFR)

Assays:
[1] = target: Folate receptor alpha on cells (SKOV3, A1847, T47D; low levels on 293T and IOSE 6) (human, UniProt P15328 25-234); assay: cell-based or functional assay
Folate receptor alpha on cells (SKOV3, A1847, T47D; low levels on 293T and IOSE 6), sequence (P15328 25-234, stated change not applied): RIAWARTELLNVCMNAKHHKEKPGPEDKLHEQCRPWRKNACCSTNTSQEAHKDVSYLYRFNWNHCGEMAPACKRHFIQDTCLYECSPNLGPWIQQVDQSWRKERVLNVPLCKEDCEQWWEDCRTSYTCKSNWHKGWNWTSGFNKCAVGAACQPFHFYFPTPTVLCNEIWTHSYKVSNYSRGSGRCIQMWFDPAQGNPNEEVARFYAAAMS

[2] = target: T1, EGFR on cells (A431; tumor cell lines; K562 cells electroporated with EGFR mRNA) (UniProt P00533 25-1210, limits assumed); assay: affinity of the scFv printed above the panel (legend paragraph 89; called KD, nM in paragraph 90); method and form of EGFR not given in the filing, text cites Zhou et al. 2007
T1 construct: whole, on cells; also called epidermal growth factor receptor

Binder	CAR expression kept after overnight co-culture with SKOV3 cells at the lowest E:T ratio [1]	frequency of CAR T cells expressing IFN-γ after incubation with FRAPOS SKOV3 cells, fold over MOv19 CAR T cells [1] [fold]	frequency of CAR T cells expressing IL-2 after incubation with FRAPOS SKOV3 cells, fold over MOv19 CAR T cells [1] [fold]	frequency of CAR T cells expressing TNF-α after incubation with FRAPOS SKOV3 cells, fold over MOv19 CAR T cells [1] [fold]	Kd [2] [nM]
B1	~50 % of initial CAR expression	5.6	9	6.1	–
B2	–	–	–	–	264
B3	–	–	–	–	15.4
B4	–	–	–	–	88.2
